This passage reports protein stability index results from the supplement of paper PMC10567573.

A short description of this data set: protein stability index of a GFP-peptide fusion (GPS, HEK-293T) (PSI 1-6); higher = more stable. Particulars: c terminus: a fixed tail appended.

± gives the standard deviation.
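Further: 24-mer peptide tiles fused after GFP, lentivirally expressed, FACS-sorted into six equal bins by GFP/DsRed ratio, decoded by Illumina sequencing, PSI is the read-weighted mean bin number.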

On to EGDVLDTLEALGYKGPLLEEQALT [FAM98B], for which the protein stability index reads like this: (treatment: DMSO) 4.36 ± 0.34; (treatment: MLN4924 1 uM, 8 h) 4.35 ± 0.12. In the case of EGFLFVFGGQDENKQTLSSGEKYD [GAN], the protein stability index worked out at 3.11 ± 0.28 (treatment: DMSO) and 3.73 ± 0.64 (treatment: MLN4924 1 uM, 8 h).

The sequence EGKTKKGVLEAPDTQVNPVGSVSV [FBXO34] yielded a protein stability index (treatment: DMSO) of 5.08 ± 0.17 and a protein stability index (treatment: MLN4924 1 uM, 8 h) of 5.14 ± 0.11. The matching figures for EGMDRWIKKIEEHAPGVPKILVGN [RAB40A]: 3.41 ± 0.18 and 3.21 ± 0.31. The matching figures for EGSRSSGSNRSGSDRRKEKDPKAG [DVL3]: 5.38 ± 0.15 and 5.5 ± 0.2. The matching figures for EGYEFCHNRKVLTIFSASNYYEVG [PPEF2]: 2.31 ± 0.44 and 2.05 ± 0.44.

The sequence EGYQALYHAVVEPMLWNPSGTPKR [C22orf31] yielded a protein stability index (treatment: DMSO) of 2.39 ± 0.28 and a protein stability index (treatment: MLN4924 1 uM, 8 h) of 2.79 ± 0.61. The matching figures for EHYWEVRYEPDSKAFGVGVAYRSL [FSD1]: 2.06 ± 0.29 and 2.25 ± 0.33.

Regarding EIIPINVNNNYEHRHTSHLGHAVL [SPRY1], the protein stability index is 2.34 ± 0.15 (treatment: DMSO) and 2.43 ± 0.3 (treatment: MLN4924 1 uM, 8 h).

Take EIKDLILPKISDPNFVKDLEEDLY [PI4K2A]: the protein stability index runs as follows: (treatment: DMSO) 3.16 ± 0.5; (treatment: MLN4924 1 uM, 8 h) 3.12 ± 0.38. For the sequence EILLDFVYTETVHVTVENVQELLP [KLHL12], the protein stability index (treatment: DMSO) amounted to 2.31 ± 0.59 and the protein stability index (treatment: MLN4924 1 uM, 8 h) turned out to be 2.4 ± 1.3. For ELEKSGHGQAGQRQDPRPHGPQLP [ZBED2] the same measures were 5.01 ± 0.25 and 5.28 ± 0.055. Take ELERCRQQAGLLVTGEKEEPSRSA [PPEF2]: the protein stability index turned out to be 4.95 ± 0.27 (treatment: DMSO) and 5.11 ± 0.86 (treatment: MLN4924 1 uM, 8 h).

With ELFKELSINVMKQLIGSSNLFVMQ [GMCL1], the protein stability index (treatment: MLN4924 1 uM, 8 h) is 3.95 ± 0.43. Consider ELLTDKSCQSFISWTGDGWEFKLS [ETS1], for which the protein stability index was determined as 2.24 ± 0.28 (treatment: DMSO) and 2.55 ± 0.37 (treatment: MLN4924 1 uM, 8 h). For EMHTSRDHSSQSEEEVVEGEKEVE [BNIP3L] the same measures were 5.682 ± 0.045 and 5.59 ± 0.16. Regarding EMSLAEELNHGRQGENQEHLVIAE [FATE1], the protein stability index by setting is: (treatment: DMSO) 5.44 ± 0.12; (treatment: MLN4924 1 uM, 8 h) 5.2 ± 0.24. For the sequence EMTTTDDLDFKHHNYKEMRQLMKV [CPXM2], the protein stability index is 3.75 ± 0.099 (treatment: DMSO) and 3.53 ± 0.18 (treatment: MLN4924 1 uM, 8 h).

Regarding ENIAWVKSYNICFELEDSNEIFTQ [PDS5B], the protein stability index reads like this: (treatment: DMSO) 2.46 ± 0.61; (treatment: MLN4924 1 uM, 8 h) 2.53 ± 0.28.

As to ENVDEASAAPGHPQDGSYPRQADH [KCNA1], the protein stability index is 5.55 ± 0.25 (treatment: DMSO) and 5.47 ± 0.26 (treatment: MLN4924 1 uM, 8 h). For ENVSVEMLLRKFAESKGTGREKPG [FCHO1] the same measures were 3.9 ± 0.086 and 4.23 ± 0.26. For EPNRLETGEAGEELDLRLRLAQPS [RTN2] the same measures were 5.17 ± 0.13 and 5.28 ± 0.17. For EQEHAAIQDKLFQVAKREREAATK [CHCHD6] the same measures were 5.38 ± 0.36 and 5.48 ± 0.16.

With EQERRERREQAAAAPFPSPAPASP [TFE3], the protein stability index is, setting by setting: (treatment: DMSO) 5.52 ± 0.18; (treatment: MLN4924 1 uM, 8 h) 5.48 ± 0.14. The matching figures for EQGAIPRLVQLLVRAHQDTQRRTS [CTNNB1]: 3.18 ± 0.19 and 3.26 ± 0.22.

Turning to EQQRKLETYLQNHFAEEERSKYDY [TENT5C], the protein stability index was 4.35 ± 0.16 (treatment: DMSO) and 4.47 ± 0.099 (treatment: MLN4924 1 uM, 8 h). Regarding EQTFSPAKSLSFRKGELVTASKAI [ADD1], the protein stability index runs as follows: (treatment: DMSO) 3.99 ± 0.17; (treatment: MLN4924 1 uM, 8 h) 4.14 ± 0.28. The matching figures for EQVNFCESSNDFGPYEGGGPVAGL [ZBTB22]: 4.3 ± 0.16 and 4.32 ± 0.25. Regarding ERRGGLPPLPLHPGGDQGGPPVGP [WAS], the protein stability index turned out to be 4.95 ± 0.4 (treatment: DMSO) and 5.22 ± 0.2 (treatment: MLN4924 1 uM, 8 h). For ESETRKAAKRMRLEIYQSSQDEPI [NOL4L] the same measures were 4.58 ± 0.071 and 4.65 ± 0.24.

Take ETAIADAEQRGDNALKDARAKLDE [KRT71]: the protein stability index reads like this: (treatment: DMSO) 5.57 ± 0.21; (treatment: MLN4924 1 uM, 8 h) 5.41 ± 0.54.

Take ETIEGAPPLWAASAAGHLKVVQSL [FEM1C]: the protein stability index came out at 3.11 ± 0.2 (treatment: DMSO) and 3.04 ± 0.46 (treatment: MLN4924 1 uM, 8 h). For EVENQFILRLPLEHACTVRNLARS [TAF7L] the same measures were 2.66 ± 0.12 and 2.51 ± 0.24. The matching figures for EVGSMKIQSGAWVCYQYPGYRGYQ [CRYBA1]: 2.08 ± 0.24 and 2.32 ± 0.11. With EYMETGSLEKLLASEPLPWDLRFR [RIPK4], the protein stability index reads like this: (treatment: DMSO) 2.76 ± 0.3; (treatment: MLN4924 1 uM, 8 h) 3.27 ± 0.6. For EYQCQNLYQLEGNNQITCRNGQWS [CFHR2] the same measures were 3.09 ± 0.14 and 3.03 ± 0.21. For FAQPMMRPPFGAAAVPGTQLSPSP [SNAP91] the same measures were 3.43 ± 0.31 and 3.71 ± 0.35.
